{"source": "patent US20260241035A1", "about": "“FUNCTIONAL NUCLEIC ACID MOLECULE AND METHOD” (THE UNIVERSITY COURT OF THE UNIVERSITY OF EDINBURGH, priority 2022, published 2026)", "molecules": {"B1": {"name": "CSE012: clustered SOX dimer motif enhancer, SEQ ID NO: 40 (nucleic acid)", "DNA": "GTAGAGAATAGATTCTGTAGGGCTTTTAACCTCCACTGTTATTCCAAGGATGGGGCTCAGCTTCCTTCTTTTCCTTTCTGACTCTGTCTATATCAAGGGTCCCGTGGGTTGTTCCTTTCCATTGTGGTCTCACTGCCCAGCTTTAAGGCACCATCCTGGCACAGTGATAGGTTTACCTTTGTCTAAAAGTGTCCATTTGCATCTCTGTGGCCTTCTTGCCTGGGTGACACCCACTTGATTAGGCATTTGCCCAGTGTGAGATCAGAGTCCCTCATTTACATTTCCCCACAATAGTGAATGGCTTACAGGCTGTTCAAATACAGTTTCTAAACAGTGAATAATTCAGCCAGAAAGCCAGCCTTTTAAGGTTTGGATTTGGGGCATTTCTGAG"}, "B2": {"name": "CSE005: clustered SOX dimer motif enhancer, SEQ ID NO: 41 (nucleic acid)", "DNA": "TCCCTTGGAAAGTGTTCAAATCAAAGCTACCTTTATACCACACTCCTTTGTGTCCTGATGTCCTGAATAGTGAGATTATCGGGTACACCCACCTGTTCCTGCACTTCCTTCCTGCTCAATTTAAATAAACAATGAGCTGTTTTTCTTCTTGACAAAGAGCCAGTCTATACAACAGCAGCAGGAAGATTACTTTCTATCTGTATGCAAACAGATACATAGCTGAGTTCTCTCCAATCCCCGGGAAAAGACCCTTTTAACTAAATGACTTATGCTTCT"}, "B3": {"name": "CSE034: clustered SOX dimer motif enhancer, SEQ ID NO: 42 (nucleic acid)", "DNA": "GCCATAATTTGAACCTCGGAGTGCCCCACTGACAGCCAACGACACCAGAGGGTCCCTTTGTATGTAAGGATTGCATGACTCCAGTTGAATGACCCAAGCCGGGGACAAACAGGAAAGAACCCAGCAGCTCTGGAGGCCACTTGAGCTGACTGTCAAATGCTCTGGGCTGATTAACGACTACGAACTTCAGGGAAGACAAGTGTGCTTTGATGCCACAGAGCTATCCTGGGCCTGTACAGGCCCGTTTCTGCTCTGAATGAGGAAGCTGTACTTTGCAGGCACCCGGCAGAACAAGAATAGGGCCTAAGATACCTGAATGAAGGGCACAGAGGAAGTACAAAATACAGTCATTGTTGGAGCTAGAAGCTGGTGCCAGGCTACGAGGGGGCCCAGTGGCCAAGCATTATG"}, "B4": {"name": "CSE078: clustered SOX dimer motif enhancer, SEQ ID NO: 43 (nucleic acid)", "DNA": "TGTCGGGCAGCCAAGACCTGTCAGGGACAAGAGTGCTGTGAGCTGCGGGCTGGTGGGTGGAAGGAGAGAGGCCCCTGGTGCTCCTGCCAAGCCAAGGAATGTGTCATTGCTGTGCTGTGCCTTCAGCCTGGCATTTGGGAACAAAGAGGTACTTTGTATGGATAACATAGACCAGGTTGTTGGGGAAGGGATCAGAGATGGGGGTAGACCCATTTTTAAAAATCTGCTCATGTCCCAGGCAAGTTTTTTTGGCAGGGATTGCAGTTGGGCTATTACAAAGAGCTGCTGTACACGAGGGGTATGTCTACTACTGTCAAATTACAGCAGCAATTATCTTGGGCACTG"}, "B5": {"name": "ID4328: enhancer fragment, SEQ ID NO: 7 (nucleic acid)", "DNA": "TACAATCTATTCTCCATAGTCATCAGAGTTTCTTTAAAGGCACGGTTCAGACAATGGCACCCTCTGTTCCAAACCCTCCAGGGCTTCCTATTTCACTTAGCATAAAAACCAAAGTCCTCACAATGACCGACAAGTCTTCACACAATGTGCCCCTTCATTG"}, "B6": {"name": "CSE088: clustered SOX dimer motif enhancer, SEQ ID NO: 44 (nucleic acid)", "DNA": "CTCGATACCCACATTCCTAACCTTTTAATGCCAAGCAGCCTATAAGCATGTCAAATTTTACTCATGTTCCTGCTCTTTCCACTCAAGTTGGCTTTGTGGGTTGCTGGTTTTATCAAAATTGAGTGAGAGTGTGTTCAATACAATGTTGGATTCATTAGGGAGAAAAAAGCCAAATAAAAACCTTGCTTCTTCAATGCCAGGAGCTTACAAAGACATATAAACCATGAGGAATTCCAAGGACTTGCTCAGAAGCCGTTCTGCAAATGCATTTCTTGAACAAAGGGCCAATGTTCCTTTCAGGGAAGAGCGCGGGACTGGTTTCCGGCATTTTTCTTTAAATCATTAGGACCATGCCAGCAAACAAACATATACAGCCCCTGGGAGAAAGAATCTCATTCAACACAGCTTACAAGAGTTTGATTATTAGGGAGGGGTGCTTCATGGCACGTGCCTCACCAGCCGGCCCCCAAATGTACAGATCTGTTTAAAGGGCTTTATTGATGGTGGCCGCAGACAGATAGAGCTTGTGAGGAGAACTGACATCCCATGGATACTAACATATCAGCATCATCCTGACCAGCACACAATCCAGTCAGAGAGAGCTGAAAAGTCTGCCTCATTCCCTTGAAAATGTGCTTCTTAAGACAAATAAAATATAGAAATAAGAAATTCACCTC"}, "B7": {"name": "CSE025: clustered SOX dimer motif enhancer, SEQ ID NO: 45 (nucleic acid)", "DNA": "ATGGACAATGGCAGCCTGAAAGAATATGAGGGAGGGTCACCAGTGATGGACATGGTTTGGGGAGAGCCCAAGAATTGAAGGGGACTTGGGATTGTTGACAGACCTTCCACATCTCAGAATGGGGGAAGTGGTTTCTTTTTTCCTCATTCTCCAAGGCTTCTCAGTCTCAGAGACCCCAAGAGATGCCATTAATACAGATTCCTCCTCTGGCTCCTTTGAGACATTTGCTTTTGAAGGACCTGGAAGAGAAAGCTCTTTGTATGTGGCCAGAATAAACTCATTGTACACCCAAACAATTAACTCCTCAATGGACTTGCCAGCCCCTTGAAAGGCCTGGCCCTGCGTCCCTGGACCTCTTGGGCTCTATTCAGTCCCTTAAGCACACCAATGTTTTTGGGTTTTTGTTTTGTTTTGTTTGTTATTCTGAAAAGTCTTTCCCTGAGAATAGTCTGAGCGGATCAACATTGTCCTCAGCCTGGCATTTATCTCTCCTCGCCAGCGAATGTCAATCAGGAATCAAAAAGCCAAACAGAGGAGGCTTTGAACGGTGTCATCGGGGGTCGAAGTGACTTCCAGCTGTCTGTGCGTGGGCCAGGCCTTCTCGCAGGGCAAGGAATTGTGCTGTCACACAAACCCACTGTCTGTATAGGCTCACAGAGCCCA"}, "B8": {"name": "CSE033: clustered SOX dimer motif enhancer, SEQ ID NO: 46 (nucleic acid)", "DNA": "CTGGGGAACAAAACTTAGATCTTGATCATCCAGCATAGCTCTGGCATGCTGAGCGTGTGATACACCTGTCTCTACCGTCAGGCAAACGAGTGGGTTCACAGGCAGAGGCCTGCCCTGCCAAACAATGCTCCCCTTTGTCCCCGCCCAGGGCTCAGGAGCCGCAAGGAAGCCAAATCCATCAGCACTTGTCAGGGCCCTTGATGCACACAATGCAAGTTATGATCCACAGTCCCCGGCAAAGCCCCAGGCTTCCAGCAGGCAGCATTAACTGACACGCAATGTGTCAGTCAGCCTTCTAAAAGCCAGGGGTGGGGATCCGTGCCAGGGGGCCACTGAGCTCTCATTCCCAGAAGCCAACCAGAGCC"}, "B9": {"name": "CSE014: clustered SOX dimer motif enhancer, SEQ ID NO: 47 (nucleic acid)", "DNA": "GCCTTTTAGCTGATTAACAAATACAGTGAATTTAACTTTGTAGATTCTTAACATTTAAAGACAACAGTCTAAGGCAATTTAAAGTATATTCTGCCAATCAGTTGTTGAGTTAGACCACCCATAGCCTTTTTTTATTCTTCATTGTTTGAATAATATGGGAGGAAATTTAGTGTATACTCTCTTCTTCCTGTATTTTCCAGTTAGATTAAGCTGTTGTCTTCACAATTGCCTCCCAGCTGCTGTGACTTGTGAAAACAACAGACCCTGCTCTGTTGTCTGGAGAAAGCCGGGATTGTTATGAGTAACTTTATTGCAGGCACATGAGTGTGTTAAGACTTTAAAACACGCTCAAATGTCATGTGCACACCCAATGACGGGCAAGAATAATTATGAAAAAACAAGAAATCTATGTCTATGAAACCGTGTTGGACAAAATGGGCCATTCATTGTGTTCCCCTGGGAATGCCTGGACTCTGCAGTCAGAAAACAAAAAAGGCACTTTTTTCCTGCCGTAGGCTGAATGCTTAGCTTTGCCATCTGAGCCCTAAGAAAACATGGGCCCCTCTACTGCTGGCGCACCCACGCACACTAAAAAATATTAATGCCTCTCTCTCCTTACTTTTTTCCAGGCATTCCCTCGTGTAGGCTGTAGCCAATATAATGTCAACACAAA"}}}
{"system": "GSC7 cells", "experiment": "Nano-Glo Dual-Luciferase Reporter (Nanoglo DLR) assay of enhancer activity, fold change to mCMV", "assay_type": "cell-based, human", "details": "expression fold change of the individual enhancer compared to mCMV", "from_the_text": "We chose an arrayed library format, with 160 bp enhancer fragments individually cloned into separate plasmids and arrayed in 96 well plates. These 160 bp were synthesized as a single pool of oligos, then randomly cloned into the plasmid and isolated. 20 bp×2 were needed for PCR amplification of the pool and so a library of 200 bp fragments was synthesized (Twist Biosciences). To meet our oligo synthesis strategy, ChIP-seq peaks expressed by GSCs were merged into a single oligo. This oligonucleotide pool was PCR-amplified (using limited cycles to reduce bias and ‘jackpot’ products meaning products which are easier to amplify will overtake the oligonucleotide pool) and cloned into the expression vector by an efficient Golden Gate reaction. 4579 individual plasmids were then randomly picked, isolated and plated as an arrayed plasmid DNA library on 96 well plates (×48). The bacterial colony picking and production of plasmid minipreps were supported by the Edinburgh Genome Foundry (S. Rosser). This library was then screened using the optimised Nanoglo DLR assay (Nano-Glo Dual-Luciferase Reporter Assay, Promega) in 384 well format. Each plate was transiently transfected together with PGK-FFLuc in a 1:10 ratio into GSC7 cells. 2 days later a Nanoglo DLR assay was performed and assayed on a plate reader.\nCells were seeded in 384 well plates using a multidrop and transfected the following day using the CyBio Felix. Two days later the experiment was terminated with a Nanoglo DLR assay and all hits with a fold change to mCMV greater than 10 were Sanger sequenced and mapped back to the genome.\nCells were seeded at the required density. The following day the transfection was carried out. For this the Plus reagent and Lipofectamine LTX (Life Technologies, 15338030) were each diluted in half the volume of Opti-MEM I Reduced-Serum Medium (further referred to as Optimem) (Life Technologies, 31985062). Following this step, the Plus reagent/Optimem premix was added to all DNA samples followed by the Lipofectamine LTX/Optimem premix. The transfection mix was incubated for 5 min at room temperature and then carefully dropped on the cells. Generally, no media change was carried out. Cells were analysed two days following transfection.\nThis assay consists of two steps. The transfection was carried out using a normalisation plasmid PGK-Firefly-Luciferase (Promega, E5011) that was transfected in a 1/10 ratio with the plasmid of interest. First, the Firefly Luciferase activity is measured which allows to normalise to transfection efficiency. In a second step, the activity of Nanoluc is determined which is the readout of the plasmid of interest. Cells were washed 3× with PBS and 20 μl was left in the 96 well plate after the final wash (25 μl in 384 well). Oneglo buffer was added and the plate was shaken for 5 min at 480 rpm to allow cell lysis. 20 μl cell lysate in 96 well format or 25 μl cell lysate in 384 well format was then transferred into the corresponding opaque white plate and luminescence was measured at for 0.1 s per well using the Ensight Multimode Plate Reader. For the following Nanoluc reaction in a 96 well format 2 μl cell lysate was transferred into an opaque white plate containing 40 μl PBS, and 20 μl Stopglo buffer, supplemented with substrate, was added to each well. In a 384 well format 20 μl Stopglo buffer containing substrate were added on top of the undiluted cell lysate. The plate was shaken again for 5 min at 480 rpm to quench the firefly luciferase reaction and ensure good mixing. Nanoluc activity was measured for 0.1 s per well, again using Ensight Multimode Plate Reader.\nData obtained by the Nanoluc reaction was normalised to Firefly reaction to account for well-to-well variability of transfection efficiency. Normalised data were used to calculate the fold change to the empty vector control mCMV.", "units": {"Fold change (Median)": "fold"}}
{"molecule": "B1", "Fold change (Median)": 10.3}
{"molecule": "B2", "Fold change (Median)": 11.5}
{"molecule": "B3", "Fold change (Median)": 14.3}
{"molecule": "B4", "Fold change (Median)": 10}
{"molecule": "B5", "Fold change (Median)": 100.7}
{"molecule": "B6", "Fold change (Median)": 16.5}
{"molecule": "B7", "Fold change (Median)": 21.3}
{"molecule": "B8", "Fold change (Median)": 20.9}
{"molecule": "B9", "Fold change (Median)": 27.7}
